In patent US10677782B2, “Methods of determining interferon having direct inhibitory effects on tumors and uses thereof” (SUPERLAB FAR EAST LIMITED, priority 2013, dated 2020):

How the values were obtained:
[1] = Tolerability and body weight of tumor-bearing mice, Example 3; type: in vivo; settings: 0.05-0.15 mg/mouse i.t. every other day, 28 days
Method: Animals were assigned to treatment groups randomly. Initially, all animals were placed in one large animal cage. For assignment to the study, they were later separately housed, with 6 animals per cage per treatment group. Groups 1 and 2 are Control groups in which the animals were each administered the vehicle every other day after the first treatment. […] The animals in Groups 4, 5 and 6 were each given rSIFN-co every other day after the first treatment at 0.15 mg/mouse (Group 4) or 0.10 mg/mouse (Group 5) or 0.05 mg/mouse (Group 6), respectively. Tumor growth was monitored by measuring the length and width of each tumor twice a week during the course of the study. Each animal was also weighed twice a week during the course of the study.
This study was conducted as in Example 1, except as specifically indicated otherwise. Human colon cancer xenografts were first established and prepared in a similar manner as in Example 1, by inoculating 5×10^6 HT-29 cells subcutaneously into nude mice and passaging the well-grown xenografts twice in nude mice. Then, 1.5 mm^3 fragments were prepared for s.c. implantation into the test animals. The body weight of the animals averaged 20±2 g at dose initiation In contrast to Example 1, the animals used in this study were all female. […]

different cancer cells = assay: Cell viability, Am-Blue assay, 48 hr, across the cancer cell lines tested; type: cell-based, human; settings: 100 mcg/ml, any of the cancer cell lines
Method: Cell culture and reagents human lung cancer cell lines (A549, H1299, H460, Calu-1), human liver cancer cell lines (SMMC-7721, Huh-7, CL-1), human cervical carcinoma cell line (Hela), human breast cancer cell line (MDA-MB-231), human pancreatic cancer cell line (PANC-1) and human colon cancer cell lines (SW620, HT29, SW480) were purchased from the Shanghai Cell Collection (Shanghai, China). The above cell lines were cultured in 5% CO2 at 37° C. in corresponding complete growth medium formulated by the Shanghai Cell Collection, with 10% heat-inactivated fetal bovine serum (Biochrom, Germany), supplemented with 4 mM glutamine, 50 U/ml penicillin and […] streptomycin.
About 5×10^3 cells in 100 μl complete medium per well were plated in 96-well plates, incubated overnight, and then treated with IFN α-2b or rSIFN-co at concentrations of 100 μg/ml, 50 μg/ml, 25 μg/ml, 12.5 μg/ml, 6.25 μg/ml, 3.13 μg/ml, 1.56 μg/ml, 0.78 μg/ml, 0.39 μg/ml, and 0.20 μg/ml, respectively, for about 48 hr, at which time the cells were harvested for analysis. The cell viability rate was evaluated by SunBio Am-Blue assay kit (Cat #: SBAB8025, Shanghai SBO Medical Biotechnology Co., Ltd, Shanghai, China). […] Results are shown in FIG. 5, in which viability of the tumor cells was expressed as a percentage relative to control cells that were not treated. […]

B1: rSIFN-co: Recombinant super-compound interferon; amino acid sequence SEQ ID NO: 1 (same as interferon alfacon-1), encoded by SEQ ID NO: 2, novel tertiary structure (protein)
chain: MCDLPQTHSLGNRRALILLAQMRRISPFSCLKDRHDFGFPQEEFDGNQFQKAQAISVLHEMIQQTFNLFSTKDSSAAWDESLLEKFYTELYQQLNDLEACVIQEVGVEETPLMNVDSILAVKKYFQRITLYLTEKKYSPCAWEVVRAEIMRSFSLSTNLQERLRRKE
modifications: Amino acid sequence of recombinant interferon
With B1 the “tolerability: signs of drug toxicity and changes in weight” value [1] was “no signs of drug toxicity and minimal changes in weight” and the cell viability (different cancer cells) was “cell viability could not be detected”.
